According to the RNAGym collection of RNA variant scans (doi:10.7554/elife.80360):

B1: CPEB3 Ribozyme (parent)
chain: GGGGGCCACAGCAGAAGCGUUCACGUCGCGGCCCCUGUCAGAUUCUGGUGAAUCUGCGAAUUCUGCUGU

Variants of: B1
Assay: self-cleavage, relative activity (ratio to wild type); higher = more cleavage; co-transcriptional

Going from GGGGGCCACAGCAGAAGCGUUCACGUCGAGGCCCCUGUCACAUUCUGGUGAAUCUGCGAAUUCUGCUGU [C29A G41C] to GGGGGCCACAGCAGAAGCGUUCACGUCGAGGCCCCUGUCAGAUUCUCGUGAAUCUGCGAAUUCUGCUGU [C29A G47C], the self-cleavage rises from 0.195 to 0.716.

First: GGGGGCCACAGCAGAAGCGUUCACGUCGAGGCCCCUGUCAGAUUCUUGUGAAUCUGCGAAUUCUGCUGU [C29A G47U]
Second: GGGGGCCACAGCAGAAGCGUUCACGUCGAGGCCCCUGUCAGAUUCUGAUGAAUCUGCGAAUUCUGCUGU [C29A G48A]
The self-cleavage of the first is higher: 0.817 for the first, 0.777 for the second.

Going from GGGGGCCACAGCAGAAGCGUUCACGUCGAGGCCCCUGUCAGAUUCUGCUGAAUCUGCGAAUUCUGCUGU [C29A G48C] to GGGGGCCACAGCAGAAGCGUUCACGUCGAGGCCCCUGUCAGAUUCUGUUGAAUCUGCGAAUUCUGCUGU [C29A G48U], the self-cleavage rises from 0.728 to 0.755.

Compared with GGGGGCCACAGCAGAAGCGUUCACGUCGAGGCCCCUGUCAGAUUCUGGUAAAUCUGCGAAUUCUGCUGU [C29A G50A], GGGGGCCACAGCAGAAGCGUUCACGUCGAGGCCCCUGUCAGAUUCUGGUUAAUCUGCGAAUUCUGCUGU [C29A G50U] is higher in self-cleavage: 0.735 for the first, 0.747 for the second.

First: GGGGGCCACAGCAGAAGCGUUCACGUCGAGGCCCCUGUCAGAUUCUGGUGAAUCUGCAAAUUCUGCUGU [C29A G58A]
Second: GGGGGCCACAGCAGAAGCGUUCACGUCGAGGCCCCUGUCAGAUUCUGGUGAAUCUGCGAAUUCUACUGU [C29A G65A]
The self-cleavage of the first is higher: 0.435 for the first, 0.371 for the second.

Going from GGGGGCCACAGCAGAAGCGUUCACGUCGAGGCCCCUGUCAGAUUCUGGUGAAUCUGCGAAUUCUCCUGU [C29A G65C] to GGGGGCCACAGCAGAAGCGUUCACGUCGAGGCCCCUGUCAGAUUCUGGUGAAUCUGCGAAUUCUUCUGU [C29A G65U], the self-cleavage falls from 0.392 to 0.25.

Compared with GGGGGCCACAGCAGAAGCGUUCACGUCGAGGCCCCUGUCAGAUUCUGGUGAAUCUGCGAAUUCUGCUCU [C29A G68C], GGGGGCCACAGCAGAAGCGUUCACGUCGAGGCCCCUGUCAGAUUCUGGUGAAUCUGCGAAUUCUGCUUU [C29A G68U] is lower in self-cleavage: 0.914 for the first, 0.903 for the second.

Compared with GGGGGCCACAGCAGAAGCGUUCACGUCGAGGCCCCAGUCAGAUUCUGGUGAAUCUGCGAAUUCUGCUGU [C29A U36A], GGGGGCCACAGCAGAAGCGUUCACGUCGAGGCCCCCGUCAGAUUCUGGUGAAUCUGCGAAUUCUGCUGU [C29A U36C] is higher in self-cleavage: 0.215 for the first, 0.428 for the second.

Compared with GGGGGCCACAGCAGAAGCGUUCACGUCGAGGCCCCUGACAGAUUCUGGUGAAUCUGCGAAUUCUGCUGU [C29A U38A], GGGGGCCACAGCAGAAGCGUUCACGUCGAGGCCCCUGCCAGAUUCUGGUGAAUCUGCGAAUUCUGCUGU [C29A U38C] is higher in self-cleavage: 0.365 for the first, 0.385 for the second.

Compared with GGGGGCCACAGCAGAAGCGUUCACGUCGAGGCCCCUGGCAGAUUCUGGUGAAUCUGCGAAUUCUGCUGU [C29A U38G], GGGGGCCACAGCAGAAGCGUUCACGUCGAGGCCCCUGUCAGAAUCUGGUGAAUCUGCGAAUUCUGCUGU [C29A U43A] is higher in self-cleavage: 0.218 for the first, 0.32 for the second.

First: GGGGGCCACAGCAGAAGCGUUCACGUCGAGGCCCCUGUCAGAUACUGGUGAAUCUGCGAAUUCUGCUGU [C29A U44A]
Second: GGGGGCCACAGCAGAAGCGUUCACGUCGAGGCCCCUGUCAGAUUCGGGUGAAUCUGCGAAUUCUGCUGU [C29A U46G]
The self-cleavage of the first is lower: 0.55 for the first, 0.759 for the second.

First: GGGGGCCACAGCAGAAGCGUUCACGUCGAGGCCCCUGUCAGAUUCUGGCGAAUCUGCGAAUUCUGCUGU [C29A U49C]
Second: GGGGGCCACAGCAGAAGCGUUCACGUCGAGGCCCCUGUCAGAUUCUGGGGAAUCUGCGAAUUCUGCUGU [C29A U49G]
The self-cleavage of the first is higher: 0.809 for the first, 0.737 for the second.

First: GGGGGCCACAGCAGAAGCGUUCACGUCGAGGCCCCUGUCAGAUUCUGGUGAAACUGCGAAUUCUGCUGU [C29A U53A]
Second: GGGGGCCACAGCAGAAGCGUUCACGUCGAGGCCCCUGUCAGAUUCUGGUGAACCUGCGAAUUCUGCUGU [C29A U53C]
The self-cleavage of the first is higher: 0.46 for the first, 0.356 for the second.

Going from GGGGGCCACAGCAGAAGCGUUCACGUCGAGGCCCCUGUCAGAUUCUGGUGAAGCUGCGAAUUCUGCUGU [C29A U53G] to GGGGGCCACAGCAGAAGCGUUCACGUCGAGGCCCCUGUCAGAUUCUGGUGAAUCAGCGAAUUCUGCUGU [C29A U55A], the self-cleavage falls from 0.454 to 0.273.

Going from GGGGGCCACAGCAGAAGCGUUCACGUCGAGGCCCCUGUCAGAUUCUGGUGAAUCCGCGAAUUCUGCUGU [C29A U55C] to GGGGGCCACAGCAGAAGCGUUCACGUCGAGGCCCCUGUCAGAUUCUGGUGAAUCUGCGAAAUCUGCUGU [C29A U61A], the self-cleavage rises from 0.38 to 0.543.

Going from GGGGGCCACAGCAGAAGCGUUCACGUCGAGGCCCCUGUCAGAUUCUGGUGAAUCUGCGAAUACUGCUGU [C29A U62A] to GGGGGCCACAGCAGAAGCGUUCACGUCGAGGCCCCUGUCAGAUUCUGGUGAAUCUGCGAAUCCUGCUGU [C29A U62C], the self-cleavage rises from 0.409 to 0.644.

Compared with GGGGGCCACAGCAGAAGCGUUCACGUCGAGGCCCCUGUCAGAUUCUGGUGAAUCUGCGAAUUCAGCUGU [C29A U64A], GGGGGCCACAGCAGAAGCGUUCACGUCGAGGCCCCUGUCAGAUUCUGGUGAAUCUGCGAAUUCCGCUGU [C29A U64C] is higher in self-cleavage: 0.223 for the first, 0.25 for the second.

Compared with GGGGGCCACAGCAGAAGCGUUCACGUCGAGGCCCCUGUCAGAUUCUGGUGAAUCUGCGAAUUCGGCUGU [C29A U64G], GGGGGCCACAGCAGAAGCGUUCACGUCGAGGCCCCUGUCAGAUUCUGGUGAAUCUGCGAAUUCUGCAGU [C29A U67A] is higher in self-cleavage: 0.292 for the first, 0.668 for the second.

First: GGGGGCCACAGCAGAAGCGUUCACGUCGAGGCCCCUGUCAGAUUCUGGUGAAUCUGCGAAUUCUGCCGU [C29A U67C]
Second: GGGGGCCACAGCAGAAGCGUUCACGUCGAGGCCCCUGUCAGAUUCUGGUGAAUCUGCGAAUUCUGCUGC [C29A U69C]
The self-cleavage of the first is lower: 0.736 for the first, 0.973 for the second.

GGGGGCCACAGCAGAAGCGUUCACGUCGGGGCCCCUGUCAGAUUCUGGUGAAUCUGCGAAUUCUGCUGU [C29G] gave a self-cleavage of 0.618.
